Experiments:
[1] = target: ClC-2 tagged with mVenus and PAmCherry (human) (UniProt P51788); assay: native gel or EMSA; high-resolution clear native electrophoresis (hrCNE); lysate of transfected HEK293T cells in 0.1 M sodium phosphate with 0.5% digitonin or 20 mM DDM; 4-14% acrylamide gradient gel run at 4 °C; mVenus fluorescence scanned; VGLUTs and sialin with and without PNGaseF
[2] = target: bClC-K tagged with mVenus and PAmCherry (Bos taurus); assay: as above

Sequence of ClC-2 tagged with mVenus and PAmCherry (P51788 2-898): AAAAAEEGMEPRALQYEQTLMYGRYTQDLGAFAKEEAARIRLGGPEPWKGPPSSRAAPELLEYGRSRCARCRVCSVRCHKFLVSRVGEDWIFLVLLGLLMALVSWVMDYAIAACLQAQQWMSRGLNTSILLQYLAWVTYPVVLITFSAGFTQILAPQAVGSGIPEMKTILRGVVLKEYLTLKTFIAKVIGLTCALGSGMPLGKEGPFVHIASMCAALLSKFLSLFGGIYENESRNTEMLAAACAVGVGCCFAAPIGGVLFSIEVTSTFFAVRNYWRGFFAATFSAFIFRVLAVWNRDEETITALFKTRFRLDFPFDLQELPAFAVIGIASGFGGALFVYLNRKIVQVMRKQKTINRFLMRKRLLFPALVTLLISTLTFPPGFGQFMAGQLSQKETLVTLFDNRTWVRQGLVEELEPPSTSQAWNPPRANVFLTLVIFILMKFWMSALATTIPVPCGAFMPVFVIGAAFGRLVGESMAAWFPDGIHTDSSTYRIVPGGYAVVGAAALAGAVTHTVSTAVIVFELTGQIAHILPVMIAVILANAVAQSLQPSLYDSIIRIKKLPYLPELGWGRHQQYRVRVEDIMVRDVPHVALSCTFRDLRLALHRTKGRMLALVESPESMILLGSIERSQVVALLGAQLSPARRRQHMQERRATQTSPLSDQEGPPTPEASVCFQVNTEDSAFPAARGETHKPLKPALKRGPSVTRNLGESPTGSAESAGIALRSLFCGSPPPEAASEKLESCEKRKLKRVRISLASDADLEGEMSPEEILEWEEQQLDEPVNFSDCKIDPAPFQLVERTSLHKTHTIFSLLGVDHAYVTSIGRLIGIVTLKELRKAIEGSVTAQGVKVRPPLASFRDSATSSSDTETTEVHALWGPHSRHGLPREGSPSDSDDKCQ

Substance	stoichiometry N [1]	stoichiometry N [2]
ClC-2 tagged with mVenus and PAmCherry (from UniProt P51788 1-898) (natural protein)	2	–
bClC-K tagged with mVenus and PAmCherry (natural protein)	–	2

Source: publication PMC9584609
